Columns and labels:
[1] = tested on: NIH3T3-AXL cl.7 fibroblasts; assay: Boyden chamber/transwell migration assay; format: cell-based; conditions: 10 μg/ml antibody, with or without 400 ng/ml Gas6, 7 h
Protocol: Transmigration experiments were performed in order to investigate whether the antibodies of the invention block cell migration. For this purpose, in the morning of day 1, NIH3T3-AXL cl.7 cells were seeded on 15 cm dished in normal growth medium, which in the evening was replaced by serum-reduced medium (DMEM, 0.5% FCS) in order to starve cells for 36 h. The next day, a FluoroBlock 96 well plate (Becton Dickinson #351164, 8 μm pore size) was coated with 10 μg collagen 1/ml 0.1 M acetic acid over night at 37° C. On day 3, the serum-reduced medium (DMEM, 0.5% FCS) was replaced by serum-free medium (DMEM, 0% FCS, 0.1% BSA) for another 4 h. Cells were harvested with 10 mM EDTA in PBS and pre-incubated with rat anti-AXL antibodies 4A6, 11B7 or 2A1 at a cell density of 4×10^5 cells/ml and an antibody concentration of 10 μg/ml for 45 min. 50 μl cell suspension (20,000 cells) per well were then placed in the top chamber of the FluoroBlock 96-well plate, 225 μl medium (DMEM, 0% FCS, 0.1% BSA) with or without 400 ng/ml mouse Gas6 (R&D Systems) were used per well in the bottom chamber. Cells were left to migrate for 7 h at 37° C. and stained afterwards with 4.2 μM calcein-AM (Molecular Probes #C3099) in PBS, 1 mM CaCl2, 1 mM MgCl2 for 1 h at 37° C. Using a Victor plate reader (Perkin Elmer), the fluorescence of each well was measured at a wavelength of 530 nm.

p42/p44 MAP-Kinase = p42/p44 MAP-Kinase phosphorylation ELISA; format: cell-based, human; conditions: 10 μg/ml antibody, 400 ng/ml Gas6; CaSki cervical cancer cells
Protocol: Next, ELISA experiments were performed in order to investigate whether the rat anti-AXL antibodies of the invention are able to block ligand Gas6-mediated activation of p42/p44 MAP-Kinase. Gas6-mediated p42/p44 MAP-Kinase activation was detected by increased protein (Thr202/Tyr204) phosphorylation. In brief, on the first day, 2×10^4 cells per well were seeded in flat-bottom 96 well plates. The next day, normal growth medium was replaced by serum-free medium to starve cells for 36 h. […] Medium was flicked out and cells were fixed with 4% formaldehyde in PBS (pH 7.5) for 30 min at room temperature. Formaldehyde solution was removed and cells were washed twice with wash buffer (PBS, 0.1% Tween 20). Cells were quenched with 1% H2O2, 0.1% NaN3 in wash buffer and incubated for 20 min at room temperature. Afterwards, the quenching solution was removed, and cells were washed twice with wash buffer and blocked with PBS, 0.5% BSA for 4 h at 4° C. Anti-phospho-p42/p44 MAP Kinase (Thr202/Tyr204) primary antibody (polyclonal rabbit; Cell Signaling #9101) diluted 1:500 in PBS, 0.5% BSA, 5 mM EDTA was added over night at 4° C. On day 4, the antibody solution was removed and the plate was washed 3× with wash buffer. […] Tetramethylbenzidine (TMB, Calbiochem) was added and monitored at 620 nm.

[2] = tested on: PC-3-LN prostate carcinoma; assay: Orthotopic prostate carcinoma xenograft model in nude mice; format: in vivo, NMRI nu/nu mice
Protocol: The anti-tumor efficacy of therapeutic antibodies is often evaluated in human xenograft tumor studies. In these model systems, human tumors grow as xenografts in immunocompromised mice and therapeutic efficacy is measured by the degree of tumor growth inhibition. The aim of this study was to evaluate whether the antagonistic rat anti-AXL antibody 11B7 of the invention interferes with tumor growth of human prostate cancer cells in nude mice. In brief, on day 0, 7-8 weeks old male NMRI^−nu/nu mice (approximate weight: 30 g after acclimatization) were anesthesized with 1.5-2.0 volume percent isoflurane at an oxygen flow rate of 2 l/min, and 1×10^6 PC-3-LN cells in 25 μl PBS were orthotopically implanted into the prostate. PC-3-LN cells are derived from the PC-3 prostate carcinoma cell line which was infected with a retrovirus coding for a luciferase-neomycin fusion protein. The onset of tumor growth and tumor growth progression was therefore measurable via in vivo bioluminescence imaging. For this purpose, luciferin was injected intraperitoneally (i.p.) into the mice and light emission was measured 10 min post injection using a NightOWL LB 981 bioluminescence imaging system (Berthold Technologies, Germany). Prior to first treatment, mice were randomized and statistical tests performed to assure uniformity in starting tumor volumes (mean, median and standard deviation) across the treatment groups of 10 animals each. On day 8, all treatments started and were continued until day 34, followed by necropsy on day 35. […] In the same experiment as described under “Rat anti-AXL antibodies of the invention reduce human prostate carcinoma growth in nude mice”, relocalization of PC-3-LN tumor cells into other organs (metastasis) was analyzed post necropsy to evaluate anti-metastatic effects of the antagonistic rat anti-AXL antibody 11B7 of the invention. […] Subsequently, light emission was measured using a NightOWL LB 981 bioluminescence imaging system (Berthold Technologies, Germany).

B1: 11B7: antagonistic rat anti-AXL monoclonal antibody, rat IgG1 (antibody, V domains shown)
VL: DIQMTQAPSSLPASLGDRVTITCRASQDIGNYLRWFQQKPGKSPRLMISGATNLAAGVPSRFSGSRSGSDYSLTISSLESEDMADYYCLQSKESPWTFGGGTKLELK
VH: EVQLQESGPGLVKPSQSLSLTCSVTGYSITSNYWGWIRKFPGDKMEWMGYITYSGSTSYNPSLKSRISITRDTSKNQFFLQLNSVTSEDTATYYCAITTFYYWGQGVMVTVSS
directed cell migration [1]: reduced both basal and Gas6-induced migration
ligand-mediated p42/p44 MAP-Kinase activation (phosphorylation) (p42/p44 MAP-Kinase): able to reduce ligand-mediated p42/p44 MAP-Kinase activation
overall growth of PC-3-LN prostate tumors (in vivo bioluminescence) ([2]; 25 mg/kg i.p. 3x a week, day 8 to 34, compared to isotypic control antibody 1D5): reduced the overall growth of PC-3-LN prostate tumors
occurrence of spleen metastases ([2]; 25 mg/kg i.p. 3x a week, post necropsy, compared to 1D5): reduced the occurrence of spleen metastases
anti-metastatic effect compared with Sutent ([2]; 11B7 25 mg/kg i.p. versus Sutent 40 mg/kg p.o. daily, spleen): stronger than that of Sutent

From patent US8933202B2, “AXL antibodies” (U3 Pharma GmbH, priority 2007, dated 2015)
